Entries after “also recorded” stand apart in the source; their conditions may differ.
B1: DVD3759: DVD-Ig: VD1 mIgM (B7.6), SL linker, VD2 DNA(PA4); heavy SEQ ID NO 64, light 65 (antibody)
heavy: QVQLKESGPGLVKPSLTLSLTCTVSGFSLNGYGVIWVRQPPGKGLEWMGVIWGNGNTNYNSTLKSRLSISRDTSKSQVFLKMNNLQTEDTAMYFCARSENYYSSPGYFAYWGQGTLVTVSSASTKGPEVQLVESGGGLVKPGGSLKLSCVASGFTFSTYAMSWVRQTPTKRLEWVATISRGGVSTYYPDTVKGRFTISRDNAKNTLYLQMSSLRSEDTAMYYCARPPTIVTTWFAYWGQGTLVTVSS
light: NTVMTQSPTSMFISVGDRVTMNCKASQNVGSDVDWYQQKTGQSPKLLISGTSNRYTGVPDRFTGSGSGTDFTLTISNMQAEDLAVYYCLQYNYNPTFGAGTKLELKRTVAAPSVFIFPPDVVMTQTPLSLPVSLGDQASISCRSSQSLVHSNGNTYLHWYLQKPGQSPKLLIYKVSNRFSGVPDRFSGSGSGTDFTLKISRVEAEDLGAYFCSQSTHVPYTFGGPTRLEIKR
B2: DVD3754: DVD-Ig: VD1 DNA(PA4), SL linker, VD2 mIgM (B7.6); heavy SEQ ID NO 54, light 55 (antibody)
heavy: EVQLVESGGGLVKPGGSLKLSCVASGFTFSTYAMSWVRQTPTKRLEWVATISRGGVSTYYPDTVKGRFTISRDNAKNTLYLQMSSLRSEDTAMYYCARPPTIVTTWFAYWGQGTLVTVSSASTKGPQVQLKESGPGLVKPSLTLSLTCTVSGFSLNGYGVIWVRQPPGKGLEWMGVIWGNGNTNYNSTLKSRLSISRDTSKSQVFLKMNNLQTEDTAMYFCARSENYYSSPGYFAYWGQGTLVTVSS
light: DVVMTQTPLSLPVSLGDQASISCRSSQSLVHSNGNTYLHWYLQKPGQSPKLLIYKVSNRFSGVPDRFSGSGSGTDFTLKISRVEAEDLGAYFCSQSTHVPYTFGGPTRLEIKRTVAAPSVFIFPPNTVMTQSPTSMFISVGDRVTMNCKASQNVGSDVDWYQQKTGQSPKLLISGTSNRYTGVPDRFTGSGSGTDFTLTISNMQAEDLAVYYCLQYNYNPTFGAGTKLELKR

Legend:
Type in all cases: cell-based, mouse
Primary murine B cells = test: CFSE dilution / Sytox Blue FACS of primary murine B cells; conditions: 72 hours, FIG. 3
Procedure: Primary murine B cells were purified by positive selection as described above. For cultures >48 hours old, proliferation was quantified by carboxyfluorescein diacetate, succinimidyl ester (CFSE) dilution and cell death by TO-PRO-3 binding. To label the cells with CFSE, the cells were first washed 2 times with PBS. Next, the stock of CFSE was diluted to 10 μM in PBS and the cells were brought to 1×10^7 cells/ml. The cells were mixed at a 1:1 ratio with 10 μM CFSE and mixed gently for 2 minutes. The CFSE labeling reaction was stopped by adding heat inactivated fetal calf serum equal in volume to the starting volume for the cell suspension. […] Proliferation was measured by fluorophore dilution at 60-72 hours by flow cytometry. […]
Primary murine B cells were labeled and prepared as in Example 2.7 and stimulated with either media alone, […] of TLR9 ligand CpG oligodeoxynucleotide (ODN) 1826, […] of the mouse anti-chromatin autoantibody PL2-3 or […] DVD3759 in the presence or absence of […] of the B cell survival factor BLyS. After 72 hours, cells were stained with 1 μM of the cell permeable DNA stain Sytox Blue and analyzed by fluorescence activated cell sorting (FACS). Cell division was determined by dilution of CFSE and dead cells were identified by staining with Sytox Blue.

[1] = tested on: wild type (WT) primary B cells; test: CFSE dilution / TO-PRO-3 FACS of wild type B cells (Example 4); conditions: 72 hours, FIG. 4
Procedure: Primary murine B cells were purified by positive selection as described above. For cultures >48 hours old, proliferation was quantified by carboxyfluorescein diacetate, succinimidyl ester (CFSE) dilution and cell death by TO-PRO-3 binding. To label the cells with CFSE, the cells were first washed 2 times with PBS. Next, the stock of CFSE was diluted to 10 μM in PBS and the cells were brought to 1×10^7 cells/ml. The cells were mixed at a 1:1 ratio with 10 μM CFSE and mixed gently for 2 minutes. The CFSE labeling reaction was stopped by adding heat inactivated fetal calf serum equal in volume to the starting volume for the cell suspension. The cells were washed two times with media and resuspended to 1-4×10^6 cells/ml and were incubated with 0.5 μg/ml DVD-Ig proteins (DVD3759 and DVD3754) or antibodies, with or with out 0.05 μg/ml Blys. Proliferation was measured by fluorophore dilution at 60-72 hours by flow cytometry. […]
To determine if IRAK4 kinase activity is required for activation and/or death induced TLR9 via DVD3759, either wild type (WT), IRAK2 knock out (IRAK2KO) or IRAK 4 knock-in (IRAK4 KI) primary B cells were purified and tested in a method similar to Example 2.7. […] After 72 hours, cells were stained with 500 nM of the cell permeable DNA stain TOP-RO-3 and analyzed by FACS. Cell division was determined by dilution of CFSE and dead cells were identified by staining with TOP-RO-3.

BALB/c B cells = test: Proliferation of B220+ B cells, non-Tg BALB/c; conditions: 3H-thymidine 24 hours, CFSE 72 hours; FIG. 8D, 9
Procedure: (§1) Proliferation of B220+ B cells: B cells were purified by magnetic bead separation using CD45R/B220-conjugated magnetic particles (BD Biosciences, San Jose, Calif., USA) and stimulated as described previously (Nundel et al. (2013) J. Leukoc. Biol. 94:865-875) with 15 μg/ml goat anti-mouse IgM F(ab′)2 (Jackson ImmunoResearch), ODN1826 (CpG; Idera Pharmaceuticals), anti-DNA-mAb (Leadbetter et al. (2002) Nature 416:603-607), or DVD-Ig proteins (1 μg/ml). B cell proliferation was assessed by ^3H-thymidine (Amersham Biosciences, Piscataway, N.J., USA) incorporation at 24 hours post-stimulation. For long-term proliferation assays, B220-purified B cells were labeled with a final concentration of 2.5 μM CFSE (Life Technologies) in PBS for 2 minutes. The cells were then washed and cultured for 72 hours in the presence of BLyS (Human Genome Sciences).
(§2) FACS for B cells: Multicolor flow cytometry analysis was carried out using a BD LSR II with DIVA software (BD Biosciences). Analysis was conducted with FlowJo software (Tree Star, Ashland, Oreg., USA) Immature and mature B cell ratios were determined using Pacific Blue-B220 and APC-AA4.1 (eBioscience). Dead cells and debris were excluded by forward- and side-scatter. Proliferation was assessed by CFSE dilution. Cell death was ascertained using the DNA stain TO-PRO-3 (Life Technologies) at a final concentration of 20 nM.

[2] = tested on: RF Tlr9−/− or BALB/c Tlr9−/− B cells; test: Proliferation of B220+ B cells, Tlr9-/-; conditions: 3H-thymidine 24 hours, CFSE 72 hours; FIG. 9
Procedure: as §1, §2

[3] = tested on: Dnase2−/− Ifnar1−/− DKO B cells; test: 3H-thymidine incorporation of B220-purified B cells, DKO; conditions: 24 hours, FIG. 10C
Description: (§3) Mice: RF and Tlr-9^−/− mice have been described previously (Uccellini et al. (2008) J. Immunol. 181:5875-5884), The DNase II-deficient mice on a C57BL/6 background were kindly provided by Dr. S, Nagata and obtained from the RIKEN Institute. […] and Unc93B1-deficient mice were obtained from Jackson Lab. DnaseII^−/− Ifnar1^−/− (Het), DnaseII^−/− Ifnar1−/− (DKO), and DnaseII^−/− Unc93b1^−/− (TKO), were bred at UMMS. All mice were maintained at the Department of Animal Medicine of the University of Massachusetts Medical School in accordance with the regulations of the American Association for the Accreditation of Laboratory Animal Care.
as §1, with “The cells were then washed and cultured for 72 hours in the presence of BLyS (Human Genome Sciences).” left out

[4] = tested on: Dnase2−/− Ifnar1−/− Unc93b1−/− TKO B cells; test: 3H-thymidine incorporation of B220-purified B cells, TKO; conditions: 24 hours, FIG. 10C
Description: as §3
as §1, with “The cells were then washed and cultured for 72 hours in the presence of BLyS (Human Genome Sciences).” left out

| Molecule | effect of addition of BLyS on cell death (Primary murine B cells; 0.05 mg/ml BLyS) | cell division (CFSE dilution) and cell death (Sytox Blue) (Primary murine B cells; absence of BLyS) | effect of addition of BLyS on cell death ([1]; 0.05 μg/ml BLyS) | cell division (CFSE dilution) and cell death (TO-PRO-3) ([1]; 0.5 μg/ml) | activation / proliferation of non-Tg BALB/c B cells (BALB/c B cells) | proliferation of Tlr9−/− B cells [2] | response of DKO B cells [3] | response of TKO B cells [4] |
| --- | --- | --- | --- | --- | --- | --- | --- | --- |
| B1 | could be rescued | induced several rounds of division followed by post-proliferative cell death | could be rescued | induced several rounds of division followed by post-proliferative cell death |  |  |  |  |
| B2 |  |  |  |  | stimulated BALB/c B cells more strongly than the rest; also recorded: induced both RF and non-Tg BALB/c B cells | not RF Tlr9^−/− or BALB/c Tlr9^−/− B cells | failed to respond | failed to respond |
